Positions count from the first letter of the chain named.
What was measured:
[1] = target: T1, FVII(a) variant N184A (human, UniProt P08709 61-466); assay: SPR, ratio of KD to KD of WT
T1 construct: hFVII alanine variant in cell culture supernatant
T1 sequence: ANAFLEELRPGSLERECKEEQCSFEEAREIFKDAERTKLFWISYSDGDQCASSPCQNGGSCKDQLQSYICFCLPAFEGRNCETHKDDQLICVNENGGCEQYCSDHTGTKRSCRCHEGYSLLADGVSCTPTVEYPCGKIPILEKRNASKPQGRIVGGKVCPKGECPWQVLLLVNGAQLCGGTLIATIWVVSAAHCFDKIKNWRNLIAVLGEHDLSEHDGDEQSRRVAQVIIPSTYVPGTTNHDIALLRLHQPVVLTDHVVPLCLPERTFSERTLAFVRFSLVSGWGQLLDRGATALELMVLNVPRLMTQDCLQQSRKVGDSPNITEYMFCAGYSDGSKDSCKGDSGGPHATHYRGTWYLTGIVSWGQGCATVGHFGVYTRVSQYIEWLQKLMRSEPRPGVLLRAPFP
Description: (§1) The running buffer was prepared by diluting 10-fold the 10×HBS-P buffer (supplied by GE Healthcare) and supplemented with 1 mg/ml BSA and 5 mM CaCl2 to give 10 mM HEPES, 150 mM NaCl, 0.05% v/v Polysorbate 20, pH 7.4, 5 mM CaCl2, 1 mg/ml bovine serum albumin (BSA). […] Regeneration of the chip was achieved using 10 mM HEPES, 150 mM NaCl, 20 mM EDTA, 0.05 v/v Polysorbate 20, pH 7.4. Binding data were analysed according to a 1:1 Kinetic model and steady state analysis using BiaEvaluation 4.1 supplied by the manufacturer (Biacore AB, Uppsala, Sweden). Wherever possible, ka, kd and KD values from 1:1 kinetic fitting model are reported. […] An amino acid residue is considered a hot-spot residue if substitution of that amino acid residue with alanine results in an affinity reduction of ten (10) fold or more relative to the wild type.

[2] = target: T2, FVII(a) variant I186A (human, UniProt P08709 61-466); assay: SPR, ratio of KD to KD of WT
T2 construct: hFVII alanine variant in cell culture supernatant
T2 sequence: T1 sequence with A184N, I186A
Description: as §1

[3] = target: T3, FVII(a) WT (human, UniProt P08709 61-466); assay: SPR, ratio of KD to KD of WT
T3 construct: also called wild type human FVII(a)
T3 sequence: T1 sequence with A184N
Description: as §1

[4] = target: T3, FVII(a) WT; assay: SPR, Biacore T200, 25 C; FVII(a) captured on anti-Gla Ab 4F6, mAb0842(OA) injected
Description: as §1

[5] = target: T1, FVII(a) variant N184A; assay: SPR, Biacore T200, 25 C; FVII(a) variant captured on anti-Gla Ab 4F6, mAb0842(OA) injected
[6] = target: T4, FVII(a) variant H115A (human, UniProt P08709 61-466); assay: as above
T4 construct: hFVII alanine variant in cell culture supernatant
T4 sequence: T1 sequence with H115A, A184N

[7] = target: T5, FVII(a) variant T130A (human, UniProt P08709 61-466); assay: as above
T5 construct: hFVII alanine variant in cell culture supernatant
T5 sequence: T1 sequence with T130A, A184N

Fold diff (Variant/WT) [1]: 6.3 fold | Fold diff (Variant/WT) [2]: 1.3 fold | Fold diff (Variant/WT) [3]: 1 fold | Kd [4]: 0.31 nM | Kd [5]: 1.91 nM | Kd [6]: 8.16 nM | Kd [7]: 32.1 nM
B1: mAb0842(OA) (antibody, human IgG4 S228P, kappa)
heavy: QVQLQESGPGLVKPSQTLSLTCTVSGYSISSDSAWSWIRQPPGKGLEWIGYIQYSGSTNYNPSLKSRVTISRDTSKNQFSLKLSSVTAADTAVYYCARSVNYYGNSFAVGYWGQGTLVTVSSASTKGPSVFPLAPCSRSTSESTAALGCLVKDYFPEPVTVSWNSGALTSGVHTFPAVLQSSGLYSLSSVVTVPSSSLGTKTYTCNVDHKPSNTKVDKRVESKYGPPCPPCPAPEFLGGPSVFLFPPKPKDTLMISRTPEVTCVVVDVSQEDPEVQFNWYVDGVEVHNAKTKPREEQFNSTYRVVSVLTVLHQDWLNGKEYKCKVSNKGLPSSIEKTISKAKGQPREPQVYTLPPSQEEMTKNQVSLSCAVKGFYPSDIAVEWESNGQPENNYKTTPPVLDSDGSFFLVSRLTVDKSRWQEGNVFSCSVMHEALHNHYTQKSLSLSLGK
light: EIVLTQSPATLSLSPGERATLSCRASQGISDYLHWYQQKPGEAPRLLIKYTSQPATGIPARFSGSGSGTDFTLTISSLEPEDFAVYYCQNGHSFPLTFGQGTKLEIKRTVAAPSVFIFPPSDEQLKSGTASVVCLLNNFYPREAKVQWKVDNALQSGNSQESVTEQDSKDSTYSLSSTLTLSKADYEKHKVYACEVTHQGLSSPVTKSFNRGEC
chain: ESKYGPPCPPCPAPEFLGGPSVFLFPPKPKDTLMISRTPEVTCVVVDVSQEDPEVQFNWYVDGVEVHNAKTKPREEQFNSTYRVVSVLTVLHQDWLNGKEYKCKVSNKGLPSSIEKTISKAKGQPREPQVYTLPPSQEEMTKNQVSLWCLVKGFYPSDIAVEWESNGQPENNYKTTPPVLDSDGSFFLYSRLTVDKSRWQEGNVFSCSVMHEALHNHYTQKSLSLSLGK
notes: also called monovalent humanized 11F2 antibody; one-armed anti-FVII(a) antibody

Reference: patent US20220064329A1 (Novo Nordisk, published 2022)
